Starred links: 1 amine or outer side, 2 acyl side, 3 side chain; linkers in the order of their positions; H or OH if unused. Suc = O=C(CCC(=O)[*:2])[*:1]

The target in assay [1] is βTrCP (tag cleaved and complexed with Skp1) (UniProt Q9Y297). Description: FP competition vs fluorescein-IκB peptide.
The target in assay [2] is HisβTrCP/Skp1 and HisβTrCP/GSTSkp1 (immobilised on NTA Biacore chip) (UniProt Q9Y297). Description: SPR, Biacore T200, βTrCP/Skp1 immobilised.
The target of assay [3] is βTrCP (tag cleaved and complexed with Skp1) (UniProt Q9Y297). Briefly: FP competition vs fluorescein-IκB peptide. This is another data set of the same source.
For assay [4] the target is unchanged. Briefly: FP competition vs fluorescein-IκB peptide; Table 7: peptide selected from the arrays of Tables 5 and 6, re-synthesised; FP assay.
The target is the same in assay [5]. Briefly: FP competition, 10 nM fluorescein-IκB peptide on βTrCP/Skp1.

Chain of HisβTrCP/Skp1 and HisβTrCP/GSTSkp1 (immobilised on NTA Biacore chip) (Q9Y297 175-605, chain 1 of 2): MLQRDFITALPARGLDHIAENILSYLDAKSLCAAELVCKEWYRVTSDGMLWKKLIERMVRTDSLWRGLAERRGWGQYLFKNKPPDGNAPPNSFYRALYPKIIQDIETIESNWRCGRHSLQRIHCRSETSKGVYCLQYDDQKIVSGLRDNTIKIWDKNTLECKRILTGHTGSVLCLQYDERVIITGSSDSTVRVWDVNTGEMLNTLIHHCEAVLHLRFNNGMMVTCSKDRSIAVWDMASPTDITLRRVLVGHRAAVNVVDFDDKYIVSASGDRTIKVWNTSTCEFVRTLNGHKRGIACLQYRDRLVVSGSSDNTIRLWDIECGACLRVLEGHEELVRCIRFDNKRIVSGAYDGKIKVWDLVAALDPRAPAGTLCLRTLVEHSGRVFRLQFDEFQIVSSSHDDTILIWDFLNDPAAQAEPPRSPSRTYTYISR
Chain of HisβTrCP/Skp1 and HisβTrCP/GSTSkp1 (immobilised on NTA Biacore chip) (P63208 whole entry, chain 2 of 2, further chain): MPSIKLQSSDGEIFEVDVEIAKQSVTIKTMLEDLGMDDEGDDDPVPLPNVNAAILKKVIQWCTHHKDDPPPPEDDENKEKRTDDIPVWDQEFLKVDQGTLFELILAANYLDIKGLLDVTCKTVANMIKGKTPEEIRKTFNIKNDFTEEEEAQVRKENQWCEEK
Chain of βTrCP (tag cleaved and complexed with Skp1) (Q9Y297 175-605, chain 1 of 2): as the sequence (Q9Y297 175-605, chain 1 of 2) above
Chain of βTrCP (tag cleaved and complexed with Skp1) (P63208 whole entry, chain 2 of 2, further chain): as the sequence (P63208 whole entry, chain 2 of 2, further chain) above

Usually IC50 stands for the midpoint of a concentration-inhibition curve. Read a low IC50 as inhibition by little substance. A word on the Kd: it is the concentration at which binding is half-saturated. Read a high Kd as weaker binding. In turn, Suc-EGF(3F)1NalE-NH2 (peptide) gave an IC50 in assay [1] of 157 nM. Besides, in assay [2], the Kd is 320 nM.

In assay [1], Suc-QGYFE-NH2 showed an IC50 of 10700 nM.

As to Suc-EGF(2F)Y(Me)E-NH2 (peptide), the IC50 in assay [3] came to 3200 nM; in assay [1] it was 3280 nM. Moreover, the Kd in assay [2] worked out at 4400 nM.

Suc-AGYFE-NH2: the IC50 in assay [1] amounted to 22200 nM.

Turning to Suc-QGF(3F)F(4NO2)E-NH2 (peptide), in assay [1], the IC50 came to 2560 nM. Also, the Kd in assay [2] is 5490 nM.

Consider EAFFE-NH2 (peptide), for which, in assay [4], the IC50 amounted to 28000 nM.

In assay [1], Suc-EGF(3F)HE-NH2 (peptide) returned an IC50 of 521 nM. This substance showed an equilibrium dissociation constant (Kd) in assay [2] of 400 nM.

Regarding Suc-EGF(3F)WE-NH2 (peptide), in assay [1], the IC50 is 95 nM. Also, in assay [2], the Kd worked out at 455 nM.

The substance Suc-QGFFE-NH2 came in with an IC50 in assay [1] of 10000 nM.

Substance (MeO)Suc-EG-F(3F)-1Nal-E-NH2 (peptide) displayed an IC50 in assay [1] of 1600 nM.

The substance Suc-EGYF(4NO2)E-NH2 (peptide) returned an IC50 in assay [1] of 2070 nM. The substance further returned a Kd in assay [2] of 17700 nM.

With Suc-EG-F(3F)-3Pal-NH2 (peptide), in assay [3], the IC50 was found to be 70000 nM.

Regarding Suc-EGF(4NO2)1NalE-NH2 (peptide), in assay [1], the IC50 was 1310 nM. This substance displayed a Kd in assay [2] of 1960 nM.

Substance Suc-EGI-1Nal-E-NH2 (peptide) returned an IC50 in assay [1] of 15100 nM.

Regarding Suc-EGY1NalE-NH2 (peptide), the half-inhibitory concentration (IC50) in assay [1] was 1150 nM. Also, in assay [2], the Kd amounted to 1490 nM.

Take Suc-EG-F(3F)-1Nal-Q-NH2 (peptide): in assay [1], the IC50 was determined as 7220 nM.

Suc-EAFFE-NH2 (peptide) yielded a 50% inhibitory concentration (IC50) in assay [1] of 59800 nM.

As for Suc-EGF(2F)F(4NO2)E-NH2 (peptide), the IC50 in assay [3] was determined as 4900 nM; in assay [1] it was 4910 nM. The substance also had a Kd in assay [2] of 8000 nM.

For the substance Suc-EG-F(4NO2)-1Nal-NH2 (peptide), in assay [3], the IC50 is 14000 nM.

D-pS-GIFE-NH2 (peptide): the IC50 in assay [5] was 1240 nM.

Take Suc-EGF(3F)F(4NO2)E-NH2 (peptide): the IC50 in assay [3] came to 520 nM; in assay [1] it was 522 nM. The same substance had a Kd in assay [2] of 4530 nM.

In turn, Suc-EA-F(3F)-F(4NO2)-E-NH2 (peptide) came in with an IC50 in assay [1] of 27500 nM.

As to Suc-EAYFE-NH2 (peptide), in assay [1], the IC50 was found to be 82100 nM.

For the substance Mal-EGF(3F)F(4NO2)E-NH2 (peptide), in assay [1], the IC50 worked out at 2170 nM. Also, the Kd in assay [2] came to 1460 nM.

Fum-EG-F(3F)-F(4NO2)-E-NH2 (peptide) had an IC50 in assay [1] of 60400 nM.

As to E-pS-GIFE-NH2 (peptide), in assay [5], the IC50 worked out at 34500 nM.

Suc-AG-F(3F)-F(4NO2)-E-NH2 (peptide) registered an IC50 in assay [1] of 8010 nM.

Substance Suc-EG-3Pal-1Nal-E-NH2 (peptide) had an IC50 in assay [1] of 3630 nM.

Turning to Suc-EG-F(3F)-Y(Me)-E-NH2 (peptide), the IC50 in assay [1] was found to be 1400 nM.

In assay [1], DpSGIFE-NH2 (peptide) had an IC50 of 1240 nM. The substance also returned a Kd in assay [2] of 1480 nM.

As for Suc-EGF(4F)F(4NO2)E-NH2 (peptide), the IC50 in assay [3] worked out at 1200 nM; in assay [1], 1210 nM. This substance displayed a Kd in assay [2] of 507 nM.

The values above are taken from patent US20190106460A1, “BINDING INHIBITORS OF THE BETA. TRANSDUCIN REPEAT-CONTAINING PROTEIN” (priority 2011, published 2019).
